{"source": "patent US20260117202A1", "test_in_all_cases": "sandwich ELISA, AM14 coated, supernatant 1:10", "key": {"FHM-24 (RSV strain A2)": {"biological_target": "FHM-24 (RSV strain A2) (UniProt P03420)"}, "FHM-9 (RSV strain A2)": {"biological_target": "FHM-9 (RSV strain A2) (UniProt P03420)"}, "FHS-67 (RSV strain A2)": {"biological_target": "FHS-67 (RSV strain A2) (UniProt P03420)"}, "FHS-50 (RSV strain A2)": {"biological_target": "FHS-50 (RSV strain A2) (UniProt P03420)"}, "FHM-20 (RSV strain A2)": {"biological_target": "FHM-20 (RSV strain A2) (UniProt P03420)"}, "FHS-41 (RSV strain A2)": {"biological_target": "FHS-41 (RSV strain A2) (UniProt P03420)"}, "FHS-70 (RSV strain A2)": {"biological_target": "FHS-70 (RSV strain A2) (UniProt P03420)"}, "FHS-53 (RSV strain A2)": {"biological_target": "FHS-53 (RSV strain A2) (UniProt P03420)"}, "FHS-18 (RSV strain A2)": {"biological_target": "FHS-18 (RSV strain A2) (UniProt P03420)"}, "FHM-18 (RSV strain A2)": {"biological_target": "FHM-18 (RSV strain A2) (UniProt P03420)"}, "FHS-93 (RSV strain A2)": {"biological_target": "FHS-93 (RSV strain A2) (UniProt P03420)"}, "FHS-23 (RSV strain A2)": {"biological_target": "FHS-23 (RSV strain A2) (UniProt P03420)"}, "FHS-56 (RSV strain A2)": {"biological_target": "FHS-56 (RSV strain A2) (UniProt P03420)"}, "FHS-27 (RSV strain A2)": {"biological_target": "FHS-27 (RSV strain A2) (UniProt P03420)"}, "FHS-2 (RSV strain A2)": {"biological_target": "FHS-2 (RSV strain A2) (UniProt P03420)"}, "FHS-7 (RSV strain A2)": {"biological_target": "FHS-7 (RSV strain A2) (UniProt P03420)"}, "FHS-16 (RSV strain A2)": {"biological_target": "FHS-16 (RSV strain A2) (UniProt P03420)"}, "FHS-81 (RSV strain A2)": {"biological_target": "FHS-81 (RSV strain A2) (UniProt P03420)"}, "FHM-11 (RSV strain A2)": {"biological_target": "FHM-11 (RSV strain A2) (UniProt P03420)"}, "FHM-6 (RSV strain A2)": {"biological_target": "FHM-6 (RSV strain A2) (UniProt P03420)"}, "FHS-64 (RSV strain A2)": {"biological_target": "FHS-64 (RSV strain A2) (UniProt P03420)"}, "FHS-34 (RSV strain A2)": {"biological_target": "FHS-34 (RSV strain A2) (UniProt P03420)"}, "FHM-19 (RSV strain A2)": {"biological_target": "FHM-19 (RSV strain A2) (UniProt P03420)"}, "FHS-51 (RSV strain A2)": {"biological_target": "FHS-51 (RSV strain A2) (UniProt P03420)"}, "FHM-15 (RSV strain A2)": {"biological_target": "FHM-15 (RSV strain A2) (UniProt P03420)"}, "FHS-89 (RSV strain A2)": {"biological_target": "FHS-89 (RSV strain A2) (UniProt P03420)"}, "[1]": {"biological_target": "wild-type RSV F protein 1 before artificial mutation (RSV strain A2) (UniProt P03420)"}, "FHS-48 (RSV strain A2)": {"biological_target": "FHS-48 (RSV strain A2) (UniProt P03420)"}, "FHS-20 (RSV strain A2)": {"biological_target": "FHS-20 (RSV strain A2) (UniProt P03420)"}, "FHM-4 (RSV strain A2)": {"biological_target": "FHM-4 (RSV strain A2) (UniProt P03420)"}, "FHS-4 (RSV strain A2)": {"biological_target": "FHS-4 (RSV strain A2) (UniProt P03420)"}, "FHM-14 (RSV strain A2)": {"biological_target": "FHM-14 (RSV strain A2) (UniProt P03420)"}, "FHS-66 (RSV strain A2)": {"biological_target": "FHS-66 (RSV strain A2) (UniProt P03420)"}, "FHS-97 (RSV strain A2)": {"biological_target": "FHS-97 (RSV strain A2) (UniProt P03420)"}, "FHM-7 (RSV strain A2)": {"biological_target": "FHM-7 (RSV strain A2) (UniProt P03420)"}, "FHS-35 (RSV strain A2)": {"biological_target": "FHS-35 (RSV strain A2) (UniProt P03420)"}, "FHS-73 (RSV strain A2)": {"biological_target": "FHS-73 (RSV strain A2) (UniProt P03420)"}, "FHS-52 (RSV strain A2)": {"biological_target": "FHS-52 (RSV strain A2) (UniProt P03420)"}, "FHS-24 (RSV strain A2)": {"biological_target": "FHS-24 (RSV strain A2) (UniProt P03420)"}, "FHS-90 (RSV strain A2)": {"biological_target": "FHS-90 (RSV strain A2) (UniProt P03420)"}, "FHM-8 (RSV strain A2)": {"biological_target": "FHM-8 (RSV strain A2) (UniProt P03420)"}}, "data": [{"substance": "AM14 monoclonal antibody", "values": [{"measurement": "OD value", "setting": "FHM-24 (RSV strain A2)", "result": 1.61, "unit": "OD"}, {"measurement": "OD value", "setting": "FHM-9 (RSV strain A2)", "result": 2.12, "unit": "OD"}, {"measurement": "OD value", "setting": "FHS-67 (RSV strain A2)", "result": 1.86, "unit": "OD"}, {"measurement": "OD value", "setting": "FHS-50 (RSV strain A2)", "result": 2.3, "unit": "OD"}, {"measurement": "OD value", "setting": "FHM-20 (RSV strain A2)", "result": 0.607, "unit": "OD"}, {"measurement": "OD value", "setting": "FHS-41 (RSV strain A2)", "result": 0.006, "unit": "OD"}, {"measurement": "OD value", "setting": "FHS-70 (RSV strain A2)", "result": 0.007, "unit": "OD"}, {"measurement": "OD value", "setting": "FHS-53 (RSV strain A2)", "result": 0.008, "unit": "OD"}, {"measurement": "OD value", "setting": "FHS-18 (RSV strain A2)", "result": 0.009, "unit": "OD"}, {"measurement": "OD value", "setting": "FHM-18 (RSV strain A2)", "result": 1.8, "unit": "OD"}, {"measurement": "OD value", "setting": "FHS-93 (RSV strain A2)", "result": 0.009, "unit": "OD"}, {"measurement": "OD value", "setting": "FHS-23 (RSV strain A2)", "result": 0.008, "unit": "OD"}, {"measurement": "OD value", "setting": "FHS-56 (RSV strain A2)", "result": 0.009, "unit": "OD"}, {"measurement": "OD value", "setting": "FHS-27 (RSV strain A2)", "result": 0.005, "unit": "OD"}, {"measurement": "OD value", "setting": "FHS-2 (RSV strain A2)", "result": 0.012, "unit": "OD"}, {"measurement": "OD value", "setting": "FHS-7 (RSV strain A2)", "result": 0.011, "unit": "OD"}, {"measurement": "OD value", "setting": "FHS-16 (RSV strain A2)", "result": 0.009, "unit": "OD"}, {"measurement": "OD value", "setting": "FHS-81 (RSV strain A2)", "result": 0.008, "unit": "OD"}, {"measurement": "OD value", "setting": "FHM-11 (RSV strain A2)", "result": 0.006, "unit": "OD"}, {"measurement": "OD value", "setting": "FHM-6 (RSV strain A2)", "result": 0.005, "unit": "OD"}, {"measurement": "OD value", "setting": "FHS-64 (RSV strain A2)", "result": 0.008, "unit": "OD"}, {"measurement": "OD value", "setting": "FHS-34 (RSV strain A2)", "result": 0.007, "unit": "OD"}, {"measurement": "OD value", "setting": "FHM-19 (RSV strain A2)", "result": 0.367, "unit": "OD"}, {"measurement": "OD value", "setting": "FHS-51 (RSV strain A2)", "result": 0.006, "unit": "OD"}, {"measurement": "OD value", "setting": "FHM-15 (RSV strain A2)", "result": 1.5, "unit": "OD"}, {"measurement": "OD value", "setting": "FHS-89 (RSV strain A2)", "result": 0.006, "unit": "OD"}, {"measurement": "OD value", "setting": "[1]", "result": 0.014, "unit": "OD"}, {"measurement": "OD value", "setting": "FHS-48 (RSV strain A2)", "result": 2.42, "unit": "OD"}, {"measurement": "OD value", "setting": "FHS-20 (RSV strain A2)", "result": 0.009, "unit": "OD"}, {"measurement": "OD value", "setting": "FHM-4 (RSV strain A2)", "result": 0.028, "unit": "OD"}, {"measurement": "OD value", "setting": "FHS-4 (RSV strain A2)", "result": 2.26, "unit": "OD"}, {"measurement": "OD value", "setting": "FHM-14 (RSV strain A2)", "result": 0.008, "unit": "OD"}, {"measurement": "OD value", "setting": "FHS-66 (RSV strain A2)", "result": 1.75, "unit": "OD"}, {"measurement": "OD value", "setting": "FHS-97 (RSV strain A2)", "result": 0.006, "unit": "OD"}, {"measurement": "OD value", "setting": "FHM-7 (RSV strain A2)", "result": 0.007, "unit": "OD"}, {"measurement": "OD value", "setting": "FHS-35 (RSV strain A2)", "result": 0.007, "unit": "OD"}, {"measurement": "OD value", "setting": "FHS-73 (RSV strain A2)", "result": 0.016, "unit": "OD"}, {"measurement": "OD value", "setting": "FHS-52 (RSV strain A2)", "result": 0.007, "unit": "OD"}, {"measurement": "OD value", "setting": "FHS-24 (RSV strain A2)", "result": 0.01, "unit": "OD"}, {"measurement": "OD value", "setting": "FHS-90 (RSV strain A2)", "result": 0.007, "unit": "OD"}, {"measurement": "OD value", "setting": "FHM-8 (RSV strain A2)", "result": 0.016, "unit": "OD"}]}]}
